Results as given in patent publication US5157106A, “N-terminal deletions of lymphotoxin, their preparation and use” (BASF Aktiengesellschaft, priority 1986, dated 1992).

Experiments:
[1] = system: primary cell cultures and normal cell lines; details: cited from earlier work
Balb/c mice = assay: Determination of acute toxicity, intravenous; format: in vivo
Experimental: Male Balb/c mice from 4 to 6 weeks of age were used to determine the acute toxicity of the substances under investigation. The animals were randomized (5 animals in each group) and, following a one-week acclimatization period, they received various doses of the test substance (0.25-4.0 mg/kg body weight intravenously, injected into one of the lateral caudal veins). The volume administered was 10 ml/kg body weight; the injection was administered over a period of 10 seconds. The substances had been dissolved in physiological saline solution which contained 0.2% BSA (bovine serum albumin) immediately before the intravenous injection. Animals which received intravenous administration of 10 ml of physiological saline solution per kg of body weight, with 0.2% BSA, acted as controls. […] The following signs were noted: diarrhea, diminished locomotion, piloerection, cyanosis and death; in addition, the body temperature and weight of the animals were determined at regular intervals.

L929 = assay: In vitro cytotoxic activity towards L929 (crystal violet stain, 48 h); format: cell-based; details: L929, 48 h; corrected by comparison with the control TNF standard
Experimental: 11. IN VITRO CYTOTOXIC ACTIVITY OF HUMAN RECOMBINANT LYMPHOTOXIN (LT) AND DELTA 23, DELTA 24 AND DELTA 25 LT MUTANTS TOWARDS THE TNF- AND LYMPHOTOXIN-SENSITIVE CELL LINES L929 AND WEHI-164
The substance was added the next day in 25 μl of complete culture medium per well. The initial concentration was 10 ng of protein per ml in each case; 2 duplicate titrations were carried out in series. The following controls were also set up on each culture plate: a) only culture medium; b) cells with culture medium but without lymphotoxin; c) a titrated TNF standard of known biological activity. After incubation for a further 48 h under the conditions indicated above, the surviving cells were stained with a solution of crystal violet (15 g of crystal violet, 7 g of NaCl, 646 ml of ethanol, 172.8 ml of 37% formaldehyde made up to 2 1 with H2 O. This entailed the culture medium being drained off and then the cells being stained with 50 μl of the solution at room temperature for 20 min. The culture plates were then washed with water until all the dyestuff which was not cell-bound had been removed. The cell-bound dyestuff was determined by photometry, after addition of 100 μl of measurement solution (50% ethanol, 0.1% acetic acid), at 540 nm using a Titertek Multiscan MCC/340 (Flow Laboratories, Meckenheim). […]

MG-63 tumor cells = assay: Synergistic cytotoxic activity with recombinant interferon-gamma on tumor cells (72 h, crystal violet); details: for factor by which the cytotoxic effect induced by interferon-gamma alone is enhanced: 2 ng/ml interferon-gamma with 2 ng/ml lymphotoxin; for enhancement of the cytotoxicity induced by interferon-gamma (synergistic effect): mean of two independent experiments; for sensitivity / growth inhibition of MG-63 by the single substance: substance alone
Experimental: 2×10^3 cells in the exponential phase of growth were plated out in complete culture medium (RPMI 1640+10% FCS, both from Flow Laboratories, Meckenheim) in each well of a 96-well plate and were incubated overnight at 37° C. and 5% CO2 in an atmosphere saturated with water vapor. Then, maintaining the interferon-gamma (human recombinant) concentrations constant, the lymphotoxin or the lymphotoxin mutants were subjected to serial 5-fold dilution starting from a concentration of 10 ng/ml protein. The final volume was 150 μl in all the culture wells. Pure culture medium or cultivated cells without the addition of IFN-gamma and/or LT or LT mutants were used as controls. The culture plates were incubated for a further 72 h under the conditions indicated above and were then stained using the crystal violet stain as described under
The synergistic action of lymphotoxins with interferon-gamma was determined as follows:
a) the antiproliferative activity of interferon-gamma was determined from the optical densities of the samples by the following formula: [formula]
b) Determination of the cytotoxic activity of the combination of interferon-gamma and lymphotoxin using formula A.
c) Determination of the synergistic effect of lymphotoxins with interferon-gamma: [formula]
The figures given in the Table were determined as explained above under 12a to 12c and represent the means of two independent experiments.

[2] = in vivo studies; cited from earlier work

Molecule	cytotoxic activity [1]	time at which signs were detectable (as early as) (Balb/c mice; after the injection, especially at higher doses) [h]	severity of observed signs compared between substances (Balb/c mice; intravenous)	signs observed after injection (Balb/c mice; intravenous, 0.25-4.0 mg/kg)	reversibility of signs (Balb/c mice; surviving animals, within the 7-day observation period)	Activity (one unit = amount which induces 50% lysis of the given number of cells) (L929)	factor by which the cytotoxic effect induced by interferon-gamma alone is enhanced (MG-63 tumor cells; first measurement)	factor by which the cytotoxic effect induced by interferon-gamma alone is enhanced (MG-63 tumor cells; second measurement)	enhancement of the cytotoxicity induced by interferon-gamma (synergistic effect) (MG-63 tumor cells; IFN-gamma 0.4 ng/ml, lymphotoxin 0.016 ng/ml)	enhancement of the cytotoxicity induced by interferon-gamma (synergistic effect) (MG-63 tumor cells; IFN-gamma 0.4 ng/ml, lymphotoxin 0.08 ng/ml)	enhancement of the cytotoxicity induced by interferon-gamma (synergistic effect) (MG-63 tumor cells; IFN-gamma 0.4 ng/ml, lymphotoxin 0.4 ng/ml)	enhancement of the cytotoxicity induced by interferon-gamma (synergistic effect) (MG-63 tumor cells; IFN-gamma 0.4 ng/ml, lymphotoxin 2 ng/ml)	enhancement of the cytotoxicity induced by interferon-gamma (synergistic effect) (MG-63 tumor cells; IFN-gamma 0.4 ng/ml, lymphotoxin 10 ng/ml)	enhancement of the cytotoxicity induced by interferon-gamma (synergistic effect) (MG-63 tumor cells; IFN-gamma 2.0 ng/ml, lymphotoxin 0.016 ng/ml)	enhancement of the cytotoxicity induced by interferon-gamma (synergistic effect) (MG-63 tumor cells; IFN-gamma 2.0 ng/ml, lymphotoxin 0.08 ng/ml)	enhancement of the cytotoxicity induced by interferon-gamma (synergistic effect) (MG-63 tumor cells; IFN-gamma 2.0 ng/ml, lymphotoxin 0.4 ng/ml)	enhancement of the cytotoxicity induced by interferon-gamma (synergistic effect) (MG-63 tumor cells; IFN-gamma 2.0 ng/ml, lymphotoxin 2 ng/ml)	enhancement of the cytotoxicity induced by interferon-gamma (synergistic effect) (MG-63 tumor cells; IFN-gamma 2.0 ng/ml, lymphotoxin 10 ng/ml)	sensitivity / growth inhibition of MG-63 by the single substance (MG-63 tumor cells)	antitumor effect [2]
LT: lymphotoxin comparison substance, cloned and expressed in E. coli; product was a mixture of lymphotoxin derivatives (protein, UniProt P01374 35-205, looked up) Lymphotoxin-alpha: LPGVGLTPSAAQTARQHPKMHLAHSTLKPAAHLIGDPSKQNSLLWRANTDRAFLQDGFSLSNNSLLVPTSGIYFVYSQVVFSGKAYSPKATSSPLYLAHEVQLFSSQYPFHVPLLSSQKMVYPGLQEPWLHSMYHGAAFQLTQGDQLSTHTDGIPHLVLSPSTVFFGAFAL	less or nonexistent	2	most pronounced	dose- and time-dependent reduction in body temperature and weight and in locomotion, and induced piloerection and diarrhea	completely reversible in the surviving animals	6.1 × 10^7 U/mg protein	1.57	1.41	1.42	1.87	1.75	1.89	2.16	1.15	1.27	1.40	1.49	1.61	not sensitive to lymphotoxin alone	effective antitumor agent
interferon-gamma: human recombinant interferon-gamma (protein, UniProt P01579 24-161, looked up) Interferon gamma: QDPYVKEAENLKKYFNAGHSDVADNGTLFLGILKNWKEESDRKIMQSQIVSFYFKLFKNFKDDQSIQKSVETIKEDMNVKFFNSNKKKRDDFEKLTNYSVTDLNVQRKAIHELIQVMAELSPAAKTGKRKRSQMLFRG	–	–	–	–	–	–	–	–	–	–	–	–	–	–	–	–	–	–	growth is inhibited dosedependently	–
